Earlier results, collected in patent publication US20020119948A1, “METHOD FOR EXTENDING THE SATIETY OF FOOD BY ADDING A NUTRITIONAL COMPOSITION DESIGNED TO STIMULATE CHOLECYSTOKININ(CCK)” (PacificHealth Laboratories, Inc., priority 2000, published 2002).

Tested on: Individuals
Settings: CCK administered by injection

B1: cholecystokinin (peptide, UniProt P06307 21-115, looked up)
Cholecystokinin: QPVPPADPAGSGLQRAEEAPRRQLRVSQRTDGESRAHLGALLARYIQQARKAPSGRMSIVKNLQNLDPSHRISDRDYMGWMDFGRRSAEEYEYPS
modifications: Cholecystokinin
decrease in caloric intake: 16-22%
